The results in this text go back to ChEMBL document CHEMBL3526061, “Glucuronidation of edaravone by human liver and kidney microsomes: biphasic kinetics and identification of UGT1A9 as the major UDP-glucuronosyltransferase isoform” (Drug Metab Dispos, 2012).

Substrate in data set [1]: CC1=NN(c2ccccc2)C(=O)C1
Kind of data set: Activity of human recombinant UGT1A7 expressed in insect cells assessed as enzyme mediated glucuronidation by LC-MS/MS method. In kind it is ADME.

Substrate in the data set “not read”: CC(C)c1cccc(C(C)C)c1O
Kind of data set: not read.

Substrate in data set [2]: COc1c(C)c2c(c(O)c1C/C=C(\C)CCC(=O)O)C(=O)OC2
Briefly: Activity of human recombinant UGT1A9 expressed in insect cells assessed as enzyme mediated glucuronidation by LC-MS/MS method. In kind it is ADME.

Substrate in data set [3]: CC1=NN(c2ccccc2)C(=O)C1
Briefly: Activity of human recombinant UGT1A6 expressed in insect cells assessed as enzyme mediated glucuronidation by LC-MS/MS method. The data set is classed as ADME.

Substrate in data set [4]: CC1=NN(c2ccccc2)C(=O)C1
Kind of data set: Activity of human recombinant UGT1A1 expressed in insect cells assessed as enzyme mediated glucuronidation by LC-MS/MS method. In kind it is ADME.

Substrate in data set [5]: CC1=NN(c2ccccc2)C(=O)C1
Kind of data set: Activity of human recombinant UGT2B17 expressed in insect cells assessed as enzyme mediated glucuronidation by LC-MS/MS method. The data set is classed as ADME.

Substrate in data set [6]: CC1=NN(c2ccccc2)C(=O)C1
Briefly: Activity of human recombinant UGT2B7 expressed in insect cells assessed as enzyme mediated glucuronidation by LC-MS/MS method. In kind it is ADME.

B1: UDP-glucuronosyltransferase 1A7 (Homo sapiens) (protein)
chain: MARAGWTGLLPLYVCLLLTCGFAKAGKLLVVPMDGSHWFTMQSVVEKLILRGHEVVVVMPEVSWQLGRSLNCTVKTYSTSYTLEDQDREFMVFADARWTAPLRSAFSLLTSSSNGIFDLFFSNCRSLFNDRKLVEYLKESCFDAVFLDPFDACGLIVAKYFSLPSVVFARGIFCHYLEEGAQCPAPLSYVPRLLLGFSDAMTFKERVWNHIMHLEEHLFCPYFFKNVLEIASEILQTPVTAYDLYSHTSIWLLRTDFVLEYPKPVMPNMIFIGGINCHQGKPVPMEFEAYINASGEHGIVVFSLGSMVSEIPEKKAMAIADALGKIPQTVLWRYTGTRPSNLANNTILVKWLPQNDLLGHPMTRAFITHAGSHGVYESICNGVPMVMMPLFGDQMDNAKRMETKGAGVTLNVLEMTSEDLENALKAVINDKSYKENIMRLSSLHKDRPVEPLDLAVFWVEFVMRHKGAPHLRPAAHDLTWYQYHSLDVIGFLLAVVLTVAFITFKCCAYGYRKCLGKKGRVKKAHKSKTH
One may read the Km as the concentration of substrate that gives half-maximal velocity. As usually defined, the Vmax is the rate approached at saturating substrate. As to B1, in data set [1], the Km worked out at 432 µM and the Vmax was 7.4e-07 µmol/min/mg.

B2: UDP-glucuronosyltransferase 1A9 (Homo sapiens) (protein)
chain: MACTGWTSPLPLCVCLLLTCGFAEAGKLLVVPMDGSHWFTMRSVVEKLILRGHEVVVVMPEVSWQLGRSLNCTVKTYSTSYTLEDLDREFKAFAHAQWKAQVRSIYSLLMGSYNDIFDLFFSNCRSLFKDKKLVEYLKESSFDAVFLDPFDNCGLIVAKYFSLPSVVFARGILCHYLEEGAQCPAPLSYVPRILLGFSDAMTFKERVRNHIMHLEEHLLCHRFFKNALEIASEILQTPVTEYDLYSHTSIWLLRTDFVLDYPKPVMPNMIFIGGINCHQGKPLPMEFEAYINASGEHGIVVFSLGSMVSEIPEKKAMAIADALGKIPQTVLWRYTGTRPSNLANNTILVKWLPQNDLLGHPMTRAFITHAGSHGVYESICNGVPMVMMPLFGDQMDNAKRMETKGAGVTLNVLEMTSEDLENALKAVINDKSYKENIMRLSSLHKDRPVEPLDLAVFWVEFVMRHKGAPHLRPAAHDLTWYQYHSLDVIGFLLAVVLTVAFITFKCCAYGYRKCLGKKGRVKKAHKSKTH
B2: the Km turned out to be 41 µM in the data set “not read” and 160 µM in data set [2].

B3: UDP-glucuronosyltransferase 1A6 (Homo sapiens) (protein)
chain: MACLLRSFQRISAGVFFLALWGMVVGDKLLVVPQDGSHWLSMKDIVEVLSDRGHEIVVVVPEVNLLLKESKYYTRKIYPVPYDQEELKNRYQSFGNNHFAERSFLTAPQTEYRNNMIVIGLYFINCQSLLQDRDTLNFFKESKFDALFTDPALPCGVILAEYLGLPSVYLFRGFPCSLEHTFSRSPDPVSYIPRCYTKFSDHMTFSQRVANFLVNLLEPYLFYCLFSKYEELASAVLKRDVDIITLYQKVSVWLLRYDFVLEYPRPVMPNMVFIGGINCKKRKDLSQEFEAYINASGEHGIVVFSLGSMVSEIPEKKAMAIADALGKIPQTVLWRYTGTRPSNLANNTILVKWLPQNDLLGHPMTRAFITHAGSHGVYESICNGVPMVMMPLFGDQMDNAKRMETKGAGVTLNVLEMTSEDLENALKAVINDKSYKENIMRLSSLHKDRPVEPLDLAVFWVEFVMRHKGAPHLRPAAHDLTWYQYHSLDVIGFLLAVVLTVAFITFKCCAYGYRKCLGKKGRVKKAHKSKTH
Consider B3, for which, in data set [3], the Km came to 778 µM and the Vmax was determined as 1.24e-06 µmol/min/mg.

B4: UDP-glucuronosyltransferase 1A1 (Homo sapiens) (protein)
chain: MAVESQGGRPLVLGLLLCVLGPVVSHAGKILLIPVDGSHWLSMLGAIQQLQQRGHEIVVLAPDASLYIRDGAFYTLKTYPVPFQREDVKESFVSLGHNVFENDSFLQRVIKTYKKIKKDSAMLLSGCSHLLHNKELMASLAESSFDVMLTDPFLPCSPIVAQYLSLPTVFFLHALPCSLEFEATQCPNPFSYVPRPLSSHSDHMTFLQRVKNMLIAFSQNFLCDVVYSPYATLASEFLQREVTVQDLLSSASVWLFRSDFVKDYPRPIMPNMVFVGGINCLHQNPLSQEFEAYINASGEHGIVVFSLGSMVSEIPEKKAMAIADALGKIPQTVLWRYTGTRPSNLANNTILVKWLPQNDLLGHPMTRAFITHAGSHGVYESICNGVPMVMMPLFGDQMDNAKRMETKGAGVTLNVLEMTSEDLENALKAVINDKSYKENIMRLSSLHKDRPVEPLDLAVFWVEFVMRHKGAPHLRPAAHDLTWYQYHSLDVIGFLLAVVLTVAFITFKCCAYGYRKCLGKKGRVKKAHKSKTH
For the protein B4, in data set [4], the Km was determined as 285 µM and the Vmax turned out to be 4.52e-08 µmol/min/mg.

B5: UDP-glucuronosyltransferase 2B17 (Homo sapiens) (protein)
chain: MSLKWMSVFLLMQLSCYFSSGSCGKVLVWPTEYSHWINMKTILEELVQRGHEVIVLTSSASILVNASKSSAIKLEVYPTSLTKNDLEDFFMKMFDRWTYSISKNTFWSYFSQLQELCWEYSDYNIKLCEDAVLNKKLMRKLQESKFDVLLADAVNPCGELLAELLNIPFLYSLRFSVGYTVEKNGGGFLFPPSYVPVVMSELSDQMIFMERIKNMIYMLYFDFWFQAYDLKKWDQFYSEVLGRPTTLFETMGKAEMWLIRTYWDFEFPRPFLPNVDFVGGLHCKPAKPLPKEMEEFVQSSGENGIVVFSLGSMISNMSEESANMIASALAQIPQKVLWRFDGKKPNTLGSNTRLYKWLPQNDLLGHPKTKAFITHGGTNGIYEAIYHGIPMVGIPLFADQHDNIAHMKAKGAALSVDIRTMSSRDLLNALKSVINDPIYKENIMKLSRIHHDQPVKPLDRAVFWIEFVMRHKGAKHLRVAAHNLTWIQYHSLDVIAFLLACVATMIFMITKCCLFCFRKLAKTGKKKKRD
Consider B5, for which, in data set [5], the Km came out at 129 µM and the maximum rate (Vmax) was found to be 4.29e-07 µmol/min/mg.

B6: UDP-glucuronosyltransferase 2B7 (Homo sapiens) (protein)
chain: MSVKWTSVILLIQLSFCFSSGNCGKVLVWAAEYSHWMNIKTILDELIQRGHEVTVLASSASILFDPNNSSALKIEIYPTSLTKTELENFIMQQIKRWSDLPKDTFWLYFSQVQEIMSIFGDITRKFCKDVVSNKKFMKKVQESRFDVIFADAIFPCSELLAELFNIPFVYSLSFSPGYTFEKHSGGFIFPPSYVPVVMSELTDQMTFMERVKNMIYVLYFDFWFEIFDMKKWDQFYSEVLGRPTTLSETMGKADVWLIRNSWNFQFPYPLLPNVDFVGGLHCKPAKPLPKEMEDFVQSSGENGVVVFSLGSMVSNMTEERANVIASALAQIPQKVLWRFDGNKPDTLGLNTRLYKWIPQNDLLGHPKTRAFITHGGANGIYEAIYHGIPMVGIPLFADQPDNIAHMKARGAAVRVDFNTMSSTDLLNALKRVINDPSYKENVMKLSRIQHDQPVKPLDRAVFWIEFVMRHKGAKHLRVAAHDLTWFQYHSLDVIGFLLVCVATVIFIVTKCCLFCFWKFARKAKKGKND
Regarding B6, in data set [6], the Km came to 2380 µM and the Vmax is 1.77e-06 µmol/min/mg.
